Measured values taken from patent US6323185, “Anti-viral guanosine-rich oligonucleotides and method of treating HIV” (The United States of America as represented by the …).

Assays:
[1] = molecular target: T1, HIV-1 integrase wild-type (IN1-288) (HIV-1, UniProt P12497 P12497:1148-1435); test: inhibition; first activity column (headed strand transfer); other column 0.500; settings: G4
[2] = molecular target: T1, HIV-1 integrase wild-type (IN1-288); test: inhibition; first activity column (headed strand transfer); other column 0.610; Table C-2 prints 3' end ggg; settings: G4
[3] = molecular target: T1, HIV-1 integrase wild-type (IN1-288); test: inhibition; first activity column (headed strand transfer); other column 0.030; settings: G4
[4] = molecular target: T1, HIV-1 integrase wild-type (IN1-288); test: inhibition; first activity column (headed strand transfer); other column 0.013
[5] = molecular target: T1, HIV-1 integrase wild-type (IN1-288); test: inhibition; 3'-processing (+/-17); strand transfer 24 nM; Table C-2 0.060/0.020 uM; settings: intramolecular G4
[6] = molecular target: CD4 (UniProt P01730 P01730:26-396); test: competition; ID50, oligo with immobilized CD4; settings: tags: immobilized, gp120 capture ELISA kit
[7] = molecular target: T2, gp120 envelope glycoprotein (HIV-1, UniProt P04578 P04578:33-511); test: competition; ID50, gp120/CD4 ELISA; settings: tags: gp120 capture ELISA kit
[8] = molecular target: T1, HIV-1 integrase wild-type (IN1-288); test: inhibition; first activity column (headed strand transfer); other column 0.040; settings: G4
[9] = molecular target: T1, HIV-1 integrase wild-type (IN1-288); test: inhibition; first activity column (headed strand transfer); other column 0.055; settings: G4
[10] = molecular target: T1, HIV-1 integrase wild-type (IN1-288); test: inhibition; 3'-processing; strand transfer 620 nM; settings: G4
[11] = molecular target: T1, HIV-1 integrase wild-type (IN1-288); test: inhibition; 3'-processing (+/-26); strand transfer 134 nM; settings: G4
[12] = molecular target: T1, HIV-1 integrase wild-type (IN1-288); test: inhibition; first activity column (headed strand transfer); other column 0.100; settings: G4
[13] = molecular target: T1, HIV-1 integrase wild-type (IN1-288); test: inhibition; first activity column (headed strand transfer); other column 0.050
[14] = molecular target: T2, gp120 envelope glycoprotein; test: competition; ID50, gp120/CD4 ELISA, preincubated with gp120; settings: tags: gp120 capture ELISA kit
[15] = molecular target: T1, HIV-1 integrase wild-type (IN1-288); test: inhibition; first activity column (headed strand transfer, order matches 3'-processing in Table D-1); other column 0.600; settings: G4
[16] = molecular target: T1, HIV-1 integrase wild-type (IN1-288); test: inhibition; first activity column (headed strand transfer, order matches 3'-processing elsewhere); other column 0.750; Table B-7 gives >0.5 for both; settings: G4
[17] = molecular target: T1, HIV-1 integrase wild-type (IN1-288); test: inhibition; first activity column (headed strand transfer); other column 0.016; settings: G4, loop 3 inverted
[18] = molecular target: T1, HIV-1 integrase wild-type (IN1-288); test: inhibition; first activity column (headed strand transfer); other column 0.095; settings: G4
[19] = molecular target: T1, HIV-1 integrase wild-type (IN1-288); test: inhibition; first activity column (headed strand transfer); other column 0.120; settings: G4
[20] = molecular target: T1, HIV-1 integrase wild-type (IN1-288); test: inhibition; first activity column (headed strand transfer); other column 0.084; settings: G4
[21] = molecular target: T1, HIV-1 integrase wild-type (IN1-288); test: inhibition; 3'-processing; strand transfer 0.070 uM; settings: G4
[22] = molecular target: T1, HIV-1 integrase wild-type (IN1-288); test: inhibition; 3'-processing; strand transfer 0.023 uM; settings: G4
[23] = molecular target: T1, HIV-1 integrase wild-type (IN1-288); test: inhibition; 3'-processing; strand transfer 0.125 uM; settings: G4
[24] = molecular target: T1, HIV-1 integrase wild-type (IN1-288); test: inhibition; 3'-processing; strand transfer 0.123 uM; settings: one tetrad disrupted
[25] = molecular target: T1, HIV-1 integrase wild-type (IN1-288); test: inhibition; first activity column (headed strand transfer); other column 0.156; settings: G4
[26] = molecular target: T1, HIV-1 integrase wild-type (IN1-288); test: inhibition; first activity column (headed strand transfer); other column 0.134; settings: G4
[27] = molecular target: T1, HIV-1 integrase wild-type (IN1-288); test: inhibition; first activity column (headed strand transfer); other column 0.062; settings: G4
[28] = molecular target: T1, HIV-1 integrase wild-type (IN1-288); test: inhibition; first activity column (headed strand transfer); other column 0.060; settings: G4
[29] = molecular target: T1, HIV-1 integrase wild-type (IN1-288); test: inhibition; first activity column (headed strand transfer); other column 0.070; settings: G4

B1: T30675 (ssDNA)
DNA: GTGGTGGGTGTGGTTGGT
modifications: PS at first and last linkages
For B1, which IC50 [1] is on record?
The IC50 was 485 nM.

B2: T30674 (ssDNA)
DNA: GTGGTTGGTGTGGTTGGT
modifications: PS at first and last linkages
With B2 as the binder, how does the IC50 [2] read?
Its IC50 is 760 nM.

B3: T30702 (ssDNA)
DNA: GTGGTGGGTGGGTGGGT
modifications: PS at first and last linkages, capital T = C5-propynyl dU
B3 was tested. Which IC50 [3] did it give?
The IC50 was 32 nM.

B4: T30697 (ssDNA)
DNA: GTGGTGGGGTGGTGGGT
modifications: PS at first and last linkages
Which IC50 ([4]; G4, loop 2 inverted) does the source give for B4 here?
The IC50 was 130 nM.

B5: T30695 (ssDNA)
DNA: GGGTGGGTGGGTGGGT
modifications: PS at first and last linkages
B5 was tested. Which IC50 [5] did it give?
Its IC50 is 43 nM.

B6: 1231 random (ssDNA)
DNA: GATCCATGTCAGTGACAC
modifications: phosphodiester, amine
Which IC50 [6] does the source give for B6 here?
Its IC50 is > 50000 nM.

What about the IC50 [7] of the same binder?
The IC50 was > 100000 nM.

B7: T30696 (ssDNA)
DNA: GTGGGTGGTGGGTGGGT
modifications: PS at first and last linkages
With B7 as the binder, how does the IC50 ([4]; G4, loop 1 inverted) read?
The IC50 was 122 nM.

B8: T30700 (ssDNA)
DNA: GTGGTGGGTGGGTGGGT
modifications: PS at first and last linkages, capital T = C5-propynyl dU
How did the IC50 [8] turn out when B8 was run?
Its IC50 is 82 nM.

B9: T30577 (ssDNA)
DNA: GTGGTGGGTGGGTGGGT
modifications: PS at first and last linkages, 5-iodo-dU at position 9 [n positions 9 = modified dU]
With B9 as the binder, how does the IC50 [9] read?
Its IC50 is 65 nM.

B10: T30677 (ssDNA)
DNA: GTGGTTGGTGGGTTGGT
modifications: PS at first and last linkages
Which IC50 [10] does the source give for B10 here?
Its IC50 is 725 nM.

B11: T30676 (ssDNA)
DNA: GTGGTGGGTGTGGTGGGT
modifications: PS at first and last linkages
Which IC50 [11] does the source give for B11 here?
Its IC50 is 148 nM.

B12: T30745 (ssDNA)
DNA: GTGGTGGGTGGGCGGGT
modifications: PS at first and last linkages
Which IC50 [12] does the source give for B12 here?
The IC50 was 100 nM.

B13: T30719 (ssDNA)
DNA: GGGTGGGTGGGTGGGT
modifications: PS at first and last linkages, capital T = C5-propynyl dU
For B13, which IC50 [9] is on record?
Its IC50 is 55 nM.

B14: T30699 (ssDNA)
DNA: GTGGGTGGTGGGGTGGT
modifications: PS at first and last linkages
B14 was tested. Which IC50 ([13]; G4, loops 1 and 3 inverted) did it give?
The IC50 was 136 nM.

B15: I100-12 (ssDNA)
DNA: GTTGGGGGTTGTTGGTGGGGTGGTGG
modifications: all PS
How did the IC50 [14] turn out when B15 was run?
Its IC50 is 80 nM.

And the IC50 [6]?
The IC50 was 475 nM.

B16: 1232 random PT (ssDNA)
DNA: GATCCATGTCAGTGACAC
modifications: all PS
Which results are given for B16?
IC50 [6]: > 10000 nM; IC50 [7]: > 10000 nM

B17: T30673 (ssDNA)
DNA: GTGGTTGGTGTGGTTGG
modifications: PS at first and last linkages
With B17 as the binder, how does the IC50 [15] read?
The IC50 was 790 nM.

B18: T30659 thrombin-binding aptamer pPT (ssDNA)
DNA: GGTTGGTGTGGTTGG
modifications: PS at first and last linkages (Table B-7; Table C-1 lists it as PT)
Which IC50 [16] does the source give for B18 here?
Its IC50 is 870 nM.

B19: T30698 (ssDNA)
DNA: GTGGTGGGTGGGGTGGT
modifications: PS at first and last linkages
Which IC50 [17] does the source give for B19 here?
The IC50 was 150 nM.

B20: T30075 (ssDNA)
DNA: GTGGTGGGTGGGTGGGT
modifications: 3'-cholesterol via triglycyl linker
For B20, which IC50 [18] is on record?
The IC50 was 110 nM.

B21: T30701 (ssDNA)
DNA: GTGGTGGGTGGGTGGGT
modifications: PS at first and last linkages, capital T = C5-propynyl dU
For B21, which IC50 [3] is on record?
Its IC50 is 72 nM.

B22: T30579 (ssDNA)
DNA: GTGGTGGGTGGGTGGGT
modifications: PS at first and last linkages, 5-iodo-dU at positions 5, 9, 13 [n positions 5,9,13 = modified dU]
With B22 as the binder, how does the IC50 [9] read?
Its IC50 is 60 nM.

B23: T30578 (ssDNA)
DNA: GTGGTGGGTGGGTGGGT
modifications: PS at first and last linkages, 5-iodo-dU at position 13 [n positions 13 = modified dU]
With B23 as the binder, how does the IC50 ([13]; G4) read?
The IC50 was 60 nM.

B24: I100-21 (ssDNA)
DNA: GTGGTGGGTGGGTGGGTGGTGGGTGGTGGTTGTGGGTGGGTGGTG
modifications: all PS
For B24, which IC50 [14] is on record?
The IC50 was 70 nM.

What about the IC50 [6] of the same binder?
The IC50 was 48 nM.

B25: 1174 (ssDNA)
DNA: GGGTGGGTGGGTGGGTGG
modifications: all PS
How did the IC50 [7] turn out when B25 was run?
The IC50 was 90 nM.

B26: T30678 (ssDNA)
DNA: GTGGTGGGTGGGTTGGT
modifications: PS at first and last linkages
How did the IC50 [19] turn out when B26 was run?
Its IC50 is 98 nM.

B27: T30661 (ssRNA)
RNA: GUGGUGGGUGGGUGGGU
modifications: PS at first and last linkages, RNA sugars
With B27 as the binder, how does the IC50 [20] read?
Its IC50 is 111 nM.

B28: T30038 (ssDNA)
DNA: GTGGTGGGTGGGTGGGT
modifications: all PS
Which IC50 [21] does the source give for B28 here?
Its IC50 is 90 nM.

B29: T30341 thrombin-binding aptamer PT (ssDNA)
DNA: GGTTGGTGTGGTTGG
modifications: all PS (Table B-7; Table C-1 lists it as pPT)
For B29, which IC50 [22] is on record?
Its IC50 is 42 nM.

B30: T30175 (ssDNA)
DNA: GTGGTGGGTGGGTGGGT
modifications: all phosphodiester
B30 was tested. Which IC50 [23] did it give?
Its IC50 is 170 nM.

B31: T30526 (ssDNA)
DNA: GTGATGGGTGGGTGGGT
modifications: PS at first and last linkages
Which IC50 [24] does the source give for B31 here?
The IC50 was 200 nM.

B32: T30679 (ssDNA)
DNA: GTGGTTGGTGGGTGGGT
modifications: PS at first and last linkages
For B32, which IC50 [25] is on record?
Its IC50 is 159 nM.

B33: T30722 (ssDNA)
DNA: GTGGGTGGTGGGTGGGT
modifications: PS at first and last linkages, capital T = C5-propynyl dU
How did the IC50 [26] turn out when B33 was run?
Its IC50 is 129 nM.

B34: T30571 (ssDNA)
DNA: GTGGTGGGTGGGTGGGT
modifications: PS at first and last linkages, 5-bromo-dU at positions 5, 9, 13 [n positions 5,9,13 = modified dU]
For B34, which IC50 ([13]; G4) is on record?
The IC50 was 55 nM.

B35: T30720 (ssDNA)
DNA: GGGGTGGTGGGTGGGT
modifications: PS at first and last linkages, capital T = C5-propynyl dU
How did the IC50 [27] turn out when B35 was run?
Its IC50 is 59 nM.

B36: T30744 (ssDNA)
DNA: GTGGTGGGCGGGTGGGT
modifications: PS at first and last linkages
Which IC50 [28] does the source give for B36 here?
Its IC50 is 105 nM.

B37: T30570 (ssDNA)
DNA: GTGGTGGGTGGGTGGGT
modifications: PS at first and last linkages, 5-bromo-dU at position 13 [n positions 13 = modified dU]
For B37, which IC50 [29] is on record?
Its IC50 is 90 nM.

B38: T30576 (ssDNA)
DNA: GTGGTGGGTGGGTGGGT
modifications: PS at first and last linkages, 5-iodo-dU at position 5 [n positions 5 = modified dU]
With B38 as the binder, how does the IC50 ([13]; G4) read?
The IC50 was 65 nM.
